Key:
[1] = target: T1, murine FAP (mouse, UniProt P97321 27-761); test: SPR simultaneous binding, figure legend (FIG. 2C)
T1 construct: also called mouse FAP
Procedure: The capacity of binding simultaneously murine 4-1BB Fc(kih) and murine FAP was assessed by surface plasmon resonance (SPR) in the manner as described in WO 2016/075278 A1. All SPR experiments were performed on a Biacore T200 at 25° C. with HBS-EP as running buffer (0.01 M HEPES pH 7.4, 0.15 M NaCl, 3 mM EDTA, 0.005% Surfactant P20, Biacore, Freiburg/Germany). Biotinylated murine 4-1BB Fc(kih) was directly coupled to a flow cell of a streptavidin (SA) sensor chip. Immobilization levels up to 600 resonance units (RU) were used.
The FAP-targeted 4-1BB constructs were passed at a concentration range of 200 nM with a flow of 30 μL/minute through the flow cells over 90 seconds and dissociation was set to zero sec. Murine FAP was injected as second analyte with a flow of 30 μL/minute through the flow cells over 90 seconds at a concentration of 500 nM. The dissociation was monitored for 120 sec. Bulk refractive index differences were corrected for by subtracting the response obtained in a reference flow cell, where no protein was immobilized.

[2] = target: T2, biotinylated murine 4-1BB Fc(kih) (murine, UniProt P20334 24-187, biotinylated); test: SPR (Biacore T200, 25 C): biotinylated murine 4-1BB Fc(kih) on SA chip, construct at 200 nM as first analyte, murine FAP at 500 nM as second analyte
T2 construct: also called immobilized murine 4-1BB
T2 sequence: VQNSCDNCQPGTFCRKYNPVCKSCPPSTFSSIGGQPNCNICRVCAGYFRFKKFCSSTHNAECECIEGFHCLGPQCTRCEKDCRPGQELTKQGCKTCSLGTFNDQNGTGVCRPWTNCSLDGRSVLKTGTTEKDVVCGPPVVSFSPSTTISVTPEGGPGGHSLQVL

T1 sequence (P97321 27-761 limits assumed): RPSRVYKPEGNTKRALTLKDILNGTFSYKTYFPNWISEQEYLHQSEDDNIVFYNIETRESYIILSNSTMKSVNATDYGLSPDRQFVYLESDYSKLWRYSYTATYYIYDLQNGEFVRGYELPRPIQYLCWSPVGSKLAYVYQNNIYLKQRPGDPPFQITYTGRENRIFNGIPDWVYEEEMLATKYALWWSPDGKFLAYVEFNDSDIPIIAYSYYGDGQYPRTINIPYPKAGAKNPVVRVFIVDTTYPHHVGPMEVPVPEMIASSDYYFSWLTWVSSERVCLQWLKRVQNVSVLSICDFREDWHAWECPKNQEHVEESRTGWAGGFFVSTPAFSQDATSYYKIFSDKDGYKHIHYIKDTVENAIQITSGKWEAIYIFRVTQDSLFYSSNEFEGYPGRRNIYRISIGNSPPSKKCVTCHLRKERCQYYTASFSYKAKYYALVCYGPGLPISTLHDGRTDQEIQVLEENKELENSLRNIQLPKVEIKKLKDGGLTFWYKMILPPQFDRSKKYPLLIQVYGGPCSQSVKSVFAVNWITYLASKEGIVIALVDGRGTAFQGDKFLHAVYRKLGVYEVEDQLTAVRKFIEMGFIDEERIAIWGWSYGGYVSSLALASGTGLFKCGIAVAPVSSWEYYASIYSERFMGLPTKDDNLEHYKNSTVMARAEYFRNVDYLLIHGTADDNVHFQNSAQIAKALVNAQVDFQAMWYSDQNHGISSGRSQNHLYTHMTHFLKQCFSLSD

B1: 4-1BB (MU137-1)/FAP(28H1) DAPG IgG1 2+1 (Fc-DD-VL), named muFAP-4-1BB (bispecific antibody)
heavy 1: DVQLVESGGGLVQPGRSLKLSCAASGFIFSYFDMAWVRQAPTKGLEWVASISPSGDIPYYRDSVKGRFTVSRENAKSSLYLQMDSLRSEDTATYYCARRSYGGYSELDYWGQGVMVTVSSAKTTPPSVYPLAPGSAAQTNSMVTLGCLVKGYFPEPVTVTWNSGSLSSGVHTFPAVLQSDLYTLSSSVTVPSSTWPSQTVTCNVAHPASSTKVDKKIVPRDCGCKPCICTVPEVSSVFIFPPKPKDVLTITLTPKVTCVVVAISKDDPEVQFSWFVDDVEVHTAQTKPREEQINSTFRSVSELPIMHQDWLNGKEFKCRVNSAAFGAPIEKTISKTKGRPKAPQVYTIPPPKEQMAKDKVSLTCMITNFFPEDITVEWQWNGQPAENYDNTQPIMDTDGSYFVYSDLNVQKSNWEAGNTFTCSVLHEGLHNHHTEKSLSHSPGGGGGSGGGGSGGGGSGGGGSEIVLTQSPGTLSLSPGERATLSCRASQSVSRSYLAWYQQKPGQAPRLLIIGASTRATGIPDRFSGSGSGTDFTLTISRLEPEDFAVYYCQQGQVIPPTFGQGTKVEIK
heavy 2: DVQLVESGGGLVQPGRSLKLSCAASGFIFSYFDMAWVRQAPTKGLEWVASISPSGDIPYYRDSVKGRFTVSRENAKSSLYLQMDSLRSEDTATYYCARRSYGGYSELDYWGQGVMVTVSSAKTTPPSVYPLAPGSAAQTNSMVTLGCLVKGYFPEPVTVTWNSGSLSSGVHTFPAVLQSDLYTLSSSVTVPSSTWPSQTVTCNVAHPASSTKVDKKIVPRDCGCKPCICTVPEVSSVFIFPPKPKDVLTITLTPKVTCVVVAISKDDPEVQFSWFVDDVEVHTAQTKPREEQINSTFRSVSELPIMHQDWLNGKEFKCRVNSAAFGAPIEKTISKTKGRPKAPQVYTIPPPKKQMAKDKVSLTCMITNFFPEDITVEWQWNGQPAENYKNTQPIMKTDGSYFVYSKLNVQKSNWEAGNTFTCSVLHEGLHNHHTEKSLSHSPGGGGGSGGGGSGGGGSGGGGSEVQLLESGGGLVQPGGSLRLSCAASGFTFSSHAMSWVRQAPGKGLEWVSAIWASGEQYYADSVKGRFTISRDNSKNTLYLQMNSLRAEDTAVYYCAKGWLGNFDYWGQGTLVTVSS
light: DIQMTQSPASLSASLEEIVTITCQASQDIGNWLAWYHQKPGKSPQLLIYGTSSLADGVPSRFSGSSSGSQYSLKISRLQVEDIGIYYCLQAYGAPWTFGGGTKLELKRADAAPTVSIFPPSSEQLTSGGASVVCFLNNFYPKDINVKWKIDGSERQNGVLNSWTDQDSKDSTYSMSSTLTLTKDEYERHNSYTCEATHKTSTSPIVKSFNRNEC
notes: Mouse IgG1 DAPG (D265A, P329G) with DDKK heterodimerisation; It has two anti-mouse-4-1BB Fabs (MU137-1) and one anti-FAP (28H1) VH/VL fused to the Fc C-termini; also called mouse surrogate muFAP-4-1BB; murine bispecific FAP-4-1BB antibody
- binding result [1]: binds
- binding result [2]: binds

From US20210095002A1 (Hoffmann-La Roche, published 2021)
